Measurements reported in the domain aggregation screens of Martell et al. (2025).

assay: soluble fraction after stress (log2 fold change); higher = more stays soluble; pooled small domains, quantitative proteomics; settings: stress: 50 degC
Procedure, shortened: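 After stress at 50°C, the amount of each protein still soluble was measured. This was done on pooled custom libraries of small protein domains, using high-throughput quantitative proteomics. The figure given is a base-two log fold change and stands for aggregation propensity, with higher values meaning more protein stays in solution.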

Sequence | soluble fraction (log2)
HMNRIFQERVVPAELDTLRADKVAASLFSDFSRNELAHWIKMGDLSINGGVKKAKDKLFEGDVLILDVEIV | -0.798
HMHEYSRIYQQQWWDNATGADAYHVIHSARSRAAQDPEAARALEYLEEQFRIRYGVRTEDFLGYLHD | -0.411
HMQADTATITGNGVNMRSGPGTNYQIIDTIPKGTVAEVLSQQDGWVKIYSARISGWVSASYVEIKQT | -0.356
HMLLFSVADIVKRSKRILSFKTDAELAAYFGVSRSTLSNWIARNSIDFPLLLSKMKDVDYTWLILGKGTPG | -3.97
HMEVPDTIIRLRELVAAMPEQWQKVYRLVFMEGLSKAKAGKKIGISDVRVGQLVKKINAAIAGDETLK | -0.714
HMVMETLAERINTALQTKGLSVNALARRVGVSYPAMRKITKGETLNPKFLFEIAEALGVSVEWLKTGEGSP | -0.372
HMLTTVAAQRAALHQEEDITKLREIILKLVPFWGLDGGAYADKETSIQLERQYRESFDQAVSAARRSGQA | -0.303
HMLNQIGVSQKEFDQIHTAIKIALKTSSLTPTGITEKLPKFPPEKTADILRWMADNKEVLLNSEEKYELKT | -0.0315
HMQMSERENTILLTKRYIERGEYERAMNLLDSLLIKNALDEEALAMIDEIIALKAGASLQDFPRY | -0.684
HMMEERVIEFANVLRRNGVRVSLAENMDAFRALKSLGISDPLLFRHALRATLIKRGSDIQPFEELFDFFFL | -1.26
HMPTNVYSIIGKEGIVLESIDNLNSTGKVKVNGELWSAISDSNIEKGETIKVLSVNGVKLKVEKVN | 0.0885
HMNEDYSSMVGKTGFALTILRPAGKIMIEEEVFDAVAINGYISKGQEVEVVRYENAQLYVKVK | -0.386
HMSMLGTEQRVLVLGPARKGEGFLMARTDNNRIVNFEGPLSLVDTMVRVKVTDVYPHSLGGQLL | -1.55
HMAPELSGEKLWDAQDVAMFLRVKPTTVWSYVSRDGFPAPVSQAGRAGMWSEPLVVQWYLSRPG | -0.223
HMSADISIGYNIPKGSVTVSAGGRTLQEGIDYDINYDLGTIKITNQAILNAGLPVQVNFENNAS | 0.149
HMRAMWENLFFQYKEGFLPEEYYKQGIATGIRLAGPKFVEMNIPMQKEFEDEVHRLLAEHEKSVK | -0.748
HMKSYQKITPATEGNYLTTYREGDDIKTYEGVKAMYTPADFDASSVREITPEEHQSYQKAKEQALQEETEQ | -0.225
HMSAPLKELGNDPESGKPIVVKDGRFGAYVTDGETNATLRKTDAVESLTPERAAELLAEKRAKG | 0.168
HMVPAMEVALEDARRAIEQVVSGERTSVQLSSQEAMIRKLQHQMAKDANLFSRSSGVEPQRRVTIYTN | 0.0136
HMPAEEVPLYKAVVVTTPPNRLRVRFSPAGDFKRWLQSGEEVDVYQELGDWRRIEPNGWSSAEWLQRVG | -0.157
HMEYQSLVLDFLEQGDFNAEKLKDYQRAFAKQNGMQTLPSKSQILQAYFQLVEEKKINKNSDFELLLRKR | 0.0447
HMDNVQLRNFAIKATEASIIYLDQEQRNFFWYNNNKKLMTVPFDENPYSAFAAYLKTDEGSEVYKAIEKKF | -1.68
HMSKLQKTKYAGVYFTEDTQTRVKTYVARIVLAGIIDTEVVVGHSNDQHRTNAAIAYQRRLELIQEAKN | -3.86
HMQKKYLAVKEYLLEQINSGAYQPDEPIPPEREMAAMLGVNRMTLRRAVEELMYEGLLIRKKGSGTFLTK | -1.52
HMADYYSILGLTKNATDIEIKSAFRKLAKIYHPDKNPDPNARVLFEHILKAYDTLINPHSRRRYDSL | -0.349

Sequence | soluble fraction (log2)
HMPALPGNELLRNLMLEHGLKQVDLAEIGSQGVVSEILSGKRRINRRHADLLARRFSLPAELFSR | -0.133
HMNTDALIGKTGYVTEIVGERHGRIQFSGGEWSARTEGVSIPVGAEVRVDRIDGATAVVSAV | 0.115
HMESAVDVFRSILKEKGVTEEEVRQVVAARGKYTLETPIDDYPNEFLYGYVIRYWDQIFDIIQQSREAK | -0.321
HMSEFAYPISLNGKTKFNLALSLALTKEEIEKEVLANADVQKFLNGQTPKKLIVVPGKIVNVV | -0.322
HMADLIVFTTDANKEKKVDDETYFYLDVVSDGKLVENYELTEKQYNYIKDLGVGEYVYNEKGKLDSYTAFT | -0.00687
HMRIATVTPIEEDQASDRVVAVYNDIKSTKQIDFIPNFWKVIAVNPDLLEQVWGQLKTLMHPEEVG | -0.659
HMRSPLYVQIKQHILGDIRKGVWKPGEKLPTELDLAERFGVSVGTVRRAMGGLEDEGIISRREGSGTFVRT | 0.0686
HMQMGLNEAYRVLHVSPDAPWREVQSAYKERMAKSHPDKVSHLGEELQEKAKELTVEINKAYNTIKRYKK | 0.194
HMIPLPEDVASMRERLALTPEKADELFGLEDGSFARYEHGEEKVPFVVFQLLWLLGKYPHLIGELR | -0.818
HMSVFGDNVARLRAEHGMSQRALAERLEITNGTVAAWESRDTLPDYDRIRQIAEIFDVPIPQLFAKYIP | -1.66
HMIINFDAIKLTTELNKYKRHKAIPNTFFDGTYTILDVRELYNDLTPKAQKIADELIEHYNVDVK | -1.88
HMTKKFQIQTLDKLNVRKVADWNASAVTTVKKGQILDVVAEVSPKNGSTKMYKLESGLYITASEKYVKKQG | 0.0509
HMNMVEESVKKSSQWAVFEPNTISTWVKIQAMIENYLYQKWKEGALAGAKPEHAFFVKVGLGETM | 0.163
HMTVVSVDDQASASSEAIRTKVAGDSAARMSVDAGGKITWGAGSASGDVTLYRSAANTLKTDDTLVAT | -0.0266
HMNTPTLLLYGGKDHSVPEAGIRHLRAHLSANDRGEYRFYPNAPHLLLQSRQWQQVSQDISQWLAMT | 0.141
HMEIVQVIAQNIQDLLDKHKISVSELSGYLGISRQTLTNYLKTTSTIDSVQLVKIADFFNIPAEYLLKDH | -0.968
HMRIEYYDDEELDRYIGTPASGYREAAVEEFREILLTLDADDVPGWVRSLQLRGIEFPESLRPELYL | -0.575
HMTLGSVRTVRQVLDDGRLLVADSGGNVTLVRRAGTLAKENVNTGDRVSVDSSVRFALTLIPV | -0.0338
HMDSTTHALALVRTLPRDQAEAVLLRVVADLDYADVAEIMGRSPGAVRVLVHRGLRRLEQELATRRT | -0.465
HMENTIESLLKAKGFNDIIVTVSDKQVDVVVSDKEIADNKRAQIEDVIKRKTGLEASAITITPA | 0.0688
HMQQVLGDVNEDDKVDFLDAIVVLRHDAEIIQLTDNQMKAAEVNKDGKVDFLDAIMILRYDAEIIGS | -0.0952
HMGLSARIAQRIHGLRTAQRMSLEALAARSGVSRSMISLIERNEASPTAVVLEKIATGLNVVLAALFDTP | -1.29
HMAKNDSGLNNHTFNTIRDALQKALTDGPQEAKKLTENLPFPADKIITVIRYLADHDEHFSLEDGIISLT | 0.24
HMGENTIFSGVLGEGRLDSALAHALPQFSRARIQGLIAEDAVLIAGKATNDAASKKFAGQSFELSVPAPRP | 0.105
HMKGPAFAKIDLTQLPAGLTSFLNTNAAGFKLDYAVAITKDSVIIEYHVGVTIGTAKKEFHLDPNFQLLP | -0.36

Sequence | soluble fraction (log2)
HMTYKHLTIDEMKRFLSTREDSQSALVQFARVENVVGNRKGKYAVIKKWFLKNYKEEYNAFLS | -0.17
HMREYEKAVDYVRRMISSGSLNVGDRLPTERELSLELDISRNSTREAMRMLENMGIIVSRHGSGNYISGN | -0.594
HMANYTVNAYNNGGTGGSVNMRSGPSTNDGIVVRVPHGATVTGTKSGTWSYMTYNTYTGYMMSVYLDEQS | -0.157
HMKKVIKIEENVSLQKLAALMSLKVTDVLMRLLSMGMSGVNINSTIDADTAKILASEFGWTVED | -0.743
HMNNEISINGNKIYFNKNISKVFIYDISGKLIKHKNNFNNNFIDLSEFNSAFYIIKALDINENYTTKKIFL | -1.58
HMIVIMKAKAEEEDVNRVIDTIQSLGLRTQLNLGAERMVVAVIGDISKIGEDNFFRIRAMKGVENTVFVSK | -0.396
HMPAPAPDIPYHSRVSVRRADGFYEGTWTNTAPILDYTGRWMVNVSLGGKRVFVPVEEVVVH | -0.862
HMPEITPAMIKALLSSLSEELAFASVTKVYAVLHNLFKAALLDDTIDRNPMDKVPRPRKSKDAAL | -0.38
HMKELAADFSRRIINARTSKGWSQADLGQRMAETINVIKSAESGKPPTDAVVKKFETVLGVILM | -0.641
HMSTTYLNEGDRITLTDSVNIRTSMSETADRVGLAYQGDVVTVIMSYAEGWTKVSWNGQTGYAKTEYL | -0.617
HMTVSKLKVINYTIRNGDSLWTISRKFNVTVDKVKEWNGLSDRTLLQPGQKLTLYVDPTIQISH | -0.0925
HMAKRPRFEDVIKEINTEIQKRKGKWNLTILSWMDFDDVAQVIRIHIYRKWHLYDPSKPLGPWLNR | 0.0232
HMENYTYKYATSANVNIREEPNTDSTILGKTLLNTEFQVVEDVDGWSKITTEAGYAYIKSEYLSDTE | -0.188
HMDDTVILPIQINGKRRAEISVPKAMPASEVEKLALANEDVLRFLAGQPIKKLIVVPGRIINVV | 0.179
HMNVGKYILTLAAKEGYSQSDVARRTGISRQMLSYIIAGERKLTLPQALKIESLLSLKTGTLILMQDED | -3.41
HMHETMGQIIKRLRKERGLTQESLAERLGVTFQAVSKWETDAGMPDVSQIVPLANAFGVRTDVLFGLEGRD | -0.111
HMSAEDYLERIHELIESKGTAHVADIAQSLGVGKPSVTSMVQKLADEGYLNYEKYRSLTLTDSGRSIA | 0.105
HMSFNGTILSNYQKTYPNLAKFTYDQANDALVYEGNFIKLNGYGLSRIDPVFFNMNPDEIFIFIKNG | -3.51
HMKDIIVDPQGQYNHPGVPTRIPSSDITMKGVGYPVLGIADNGQKQMMQPGQDYKFPGAKYVDEYPQM | 0.137
HMKDESYALGTRLLSHALGKTKLEDLAQEKIDEVVQQSGNKTLEQLLTNIGLGNALSIGIARQLT | 0.383
HMWTKKELWNAIAKLPKKQRTVVMMRIAQNLPYKDISEITGMSIGSAKVNYHHAVNSLKQWLS | -0.59
HMSVNAPMPGKIVNVLVSEGQKVNSGDVLLILEAMKMQNEIAATQAGTVKAINVAAGQSVKVGDALVN | 0.108
HMTDRKRDAIVQAAIGEFREHGFNGTSMDRVAAAADVSKRTVYNHFPSKEELFEAILLLMWE | -2.09
HMSMSKISNLLEIMMIIQYKGLTTASELAQSLGVDKKTVYRYINSLSKANIPIYTKKGRYGGFYIDKNF | -1.19
HMAEMLQDVLNMLSAKDREILVRYYYYYESVKQVAAEMQMSESAVKMRMSRARKKMQQELIDKG | -3.59
